These are literature values, as cited in patent publication US20260345619A1 (Principia Biopharma Inc., priority 2023, published 2026).

For the series the following is noted: for efficacy: severe asthma, eosinophilic phenotype.

B1: mepolizumab: anti-interleukin (IL)-5 agent (antibody, chains of the INN, looked up, V domains shown)
VH: QVTLRESGPALVKPTQTLTLTCTVSGFSLTSYSVHWVRQPPGKGLEWLGVIWASGGTDYNSALMSRLSISKDTSRNQVVLTMTNMDPVDTATYYCARDPPSSLLRLDYWGRGTPVTVSS
VL: DIVMTQSPDSLAVSLGERATINCKSSQSLLNSGNQKNYLAWYQQKPGQPPKLLIYGASTRESGVPDRFSGSGSGTDFTLTISSLQAEDVAVYYCQNVHSFPFTFGGGTKLEIK
As for B1, the efficacy entry is listed as “have shown efficacy”. The “patients with no decrease in oral corticosteroid (OCS) dose or lack of asthma control” value (high eosinophilic group (Bel E H et al., 2014)) is given as 36%.

B2: reslizumab: anti-interleukin (IL)-5 agent (antibody, chains of the INN, looked up, V domains shown)
VH: EVQLVESGGGLVQPGGSLRLSCAVSGLSLTSNSVNWIRQAPGKGLEWVGLIWSNGDTDYNSAIKSRFTISRDTSKSTVYLQMNSLRAEDTAVYYCAREYYGYFDYWGQGTLVTVSS
VL: DIQMTQSPSSLSASVGDRVTITCLASEGISSYLAWYQQKPGKAPKLLIYGANSLQTGVPSRFSGSGSATDYTLTISSLQPEDFATYYCQQSYKFPNTFGQGTKVEVK
Regarding B2, the efficacy entry is on record as “have shown efficacy”.
